How the values were obtained:
Vac8[40–578] = biological target: T1, Vac8[40–578] (S. cerevisiae, UniProt P39968 40-578); experiment: SAXS
T1 sequence (looked up): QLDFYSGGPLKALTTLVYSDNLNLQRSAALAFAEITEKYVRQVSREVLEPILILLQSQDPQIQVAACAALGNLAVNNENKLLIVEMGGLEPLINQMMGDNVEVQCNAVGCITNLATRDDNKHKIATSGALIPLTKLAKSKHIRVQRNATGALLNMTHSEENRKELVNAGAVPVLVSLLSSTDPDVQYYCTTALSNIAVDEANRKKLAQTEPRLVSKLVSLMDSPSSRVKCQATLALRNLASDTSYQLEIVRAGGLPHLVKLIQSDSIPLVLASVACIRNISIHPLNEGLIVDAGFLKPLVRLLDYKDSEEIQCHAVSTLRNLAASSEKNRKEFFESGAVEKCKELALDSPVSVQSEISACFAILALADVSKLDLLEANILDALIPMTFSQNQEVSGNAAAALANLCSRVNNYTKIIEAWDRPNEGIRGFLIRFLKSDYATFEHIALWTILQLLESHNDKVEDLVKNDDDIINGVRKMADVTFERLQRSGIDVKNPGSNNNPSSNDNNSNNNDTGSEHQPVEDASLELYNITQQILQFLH

full-length Vac8 = biological target: T2, full-length Vac8 (S. cerevisiae, UniProt P39968 1-578); experiment: ITC
T2 sequence (looked up): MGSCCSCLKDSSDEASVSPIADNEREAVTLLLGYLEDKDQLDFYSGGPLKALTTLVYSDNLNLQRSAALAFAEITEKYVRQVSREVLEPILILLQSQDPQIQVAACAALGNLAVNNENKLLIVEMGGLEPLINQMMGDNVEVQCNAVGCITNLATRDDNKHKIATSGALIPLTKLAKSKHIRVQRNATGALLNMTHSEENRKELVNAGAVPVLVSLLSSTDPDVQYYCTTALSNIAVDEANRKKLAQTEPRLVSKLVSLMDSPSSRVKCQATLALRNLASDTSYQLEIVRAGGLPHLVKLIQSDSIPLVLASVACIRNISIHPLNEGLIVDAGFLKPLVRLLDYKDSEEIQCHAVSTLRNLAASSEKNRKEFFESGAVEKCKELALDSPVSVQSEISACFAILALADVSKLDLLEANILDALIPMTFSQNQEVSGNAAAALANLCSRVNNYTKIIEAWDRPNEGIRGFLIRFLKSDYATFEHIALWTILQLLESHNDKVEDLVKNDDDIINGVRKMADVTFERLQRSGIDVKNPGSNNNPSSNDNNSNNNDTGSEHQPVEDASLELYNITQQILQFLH

[1] = biological target: T3, Vac8[Δ19–33] (full-length Vac8 lacking the H1 helix, residues 19–33) (S. cerevisiae, UniProt P39968 1-578, Δ19–33); experiment: ITC
T3 sequence (looked up): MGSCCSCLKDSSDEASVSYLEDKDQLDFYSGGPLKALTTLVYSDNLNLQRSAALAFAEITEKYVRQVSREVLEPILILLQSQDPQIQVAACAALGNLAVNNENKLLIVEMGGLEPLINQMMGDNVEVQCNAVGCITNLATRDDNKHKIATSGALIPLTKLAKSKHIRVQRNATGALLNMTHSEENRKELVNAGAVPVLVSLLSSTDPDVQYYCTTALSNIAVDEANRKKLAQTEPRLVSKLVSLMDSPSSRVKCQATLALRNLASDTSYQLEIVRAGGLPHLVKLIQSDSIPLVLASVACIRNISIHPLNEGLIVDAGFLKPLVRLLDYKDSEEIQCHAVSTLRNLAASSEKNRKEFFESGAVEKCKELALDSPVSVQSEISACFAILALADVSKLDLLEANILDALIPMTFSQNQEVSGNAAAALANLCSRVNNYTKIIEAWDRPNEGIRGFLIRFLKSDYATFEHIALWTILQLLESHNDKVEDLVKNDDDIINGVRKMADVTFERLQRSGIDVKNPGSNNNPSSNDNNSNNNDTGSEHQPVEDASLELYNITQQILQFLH

Vac8[40–515]^L55R = biological target: T4, Vac8[40–515]^L55R (S. cerevisiae, UniProt P39968 40-515, L55R); experiment: SEC
T4 sequence (looked up): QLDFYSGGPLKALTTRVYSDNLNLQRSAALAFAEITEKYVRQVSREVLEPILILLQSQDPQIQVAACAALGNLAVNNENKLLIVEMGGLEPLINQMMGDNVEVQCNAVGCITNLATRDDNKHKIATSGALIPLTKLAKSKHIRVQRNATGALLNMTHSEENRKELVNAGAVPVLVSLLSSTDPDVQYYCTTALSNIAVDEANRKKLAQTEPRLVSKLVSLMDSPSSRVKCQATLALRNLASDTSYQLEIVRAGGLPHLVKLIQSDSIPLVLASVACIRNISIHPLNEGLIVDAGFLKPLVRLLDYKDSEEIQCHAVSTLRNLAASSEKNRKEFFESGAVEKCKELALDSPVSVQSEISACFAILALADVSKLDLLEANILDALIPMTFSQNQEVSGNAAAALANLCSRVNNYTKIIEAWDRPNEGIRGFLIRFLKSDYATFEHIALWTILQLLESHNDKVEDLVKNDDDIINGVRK

binding result (Vac8[40–578]): binds
binding result (full-length Vac8): binds
Kd [1]: 1460 nM
binding result (Vac8[40–515]^L55R): binds
B1: tAtg13 (Atg13 construct comprising residues 567–695) (domain or fragment, S. cerevisiae, UniProt Q06628 567-695, looked up)
chain: GGNSSTSALNSRRNSLDKSSNKQGMSGLPPIFGGESTSYHHDNKIQKYNQLGVEEDDDDENDRLLNQMGNSATKFKSSISPRSIDSISSSFIKSRIPIRQPYHYSQPTTAPFQAQAKFHKPANKLIDNG
